Assay results published in US11814435B2, “Therapeutic antibodies and their uses” (PFIZER INC., priority 2015, dated 2023).
Where a chain is given by its changes, count along the chain named. Blank lines part the entries; values can stand above or below the molecule they belong to.

Columns and labels:
Cyno BCMA = assay: Kinetics and affinity of cyno BCMA/human IgG interactions by SPR (Bio-Rad Proteon XPR36); type: binding, cynomolgus; settings: 37° C.
hBCMA (human BCMA) = biological target: T1, hBCMA (human BCMA) (Homo sapiens, UniProt Q02223); assay: Kinetics and affinity of hBCMA/human IgG interactions by SPR (Bio-Rad Proteon XPR36); type: binding; settings: human BCMA, 37° C.
T1 sequence (Q02223 1-184): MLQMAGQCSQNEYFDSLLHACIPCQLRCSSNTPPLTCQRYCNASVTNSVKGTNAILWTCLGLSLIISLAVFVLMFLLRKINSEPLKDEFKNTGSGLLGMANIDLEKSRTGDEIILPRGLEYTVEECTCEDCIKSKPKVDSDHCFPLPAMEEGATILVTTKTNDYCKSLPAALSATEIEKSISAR
Outline: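 Anti-BCMA IgGs were amine-coupled to a GLC chip at 25° C. BCMA analyte was run by kinetic titration at 0.08, 0.4, 2, 10 and 50 nM, with 2-minute associations and 2-hour dissociation, at 37° C. or 25° C. in HBS-T+ (pH 7.4) plus 1 mg/mL BSA. Double-referenced sensorgrams were fit to 1:1 Langmuir with mass transport.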

kd Cyno (Cyno BCMA): 0.000898 s⁻¹
ka Human (hBCMA (human BCMA)): 4.51e+06 M⁻¹ s⁻¹
kd Human (hBCMA (human BCMA)): 0.000315 s⁻¹
B1: A02_Rd4_6 nM_C10: anti-BCMA antibody (antibody, V domains shown)
VH: EVQLLESGGGLVQPGGSLRLSCAASGFTFSSYAMNWVRQAPGKGLEWVSAISDSGGSCWYADSVKGRFTISRDNSKNTLYLQMNSLRAEDTAVYYCARYWPMTPWGQGTLVTVSS
VL: EIVLTQSPGTLSLSPGERATLSCRASQSVEMSYLAWYQQKPGQAPRLLMYDASIRATGIPDRFSGSGSGTDFTLTISRLEPEDFAVYYCQQYAHWPLTFGQGTKVEIK
ka Cyno (Cyno BCMA): 1.9e+06 M⁻¹ s⁻¹

kd Cyno (Cyno BCMA): 0.0538 s⁻¹
ka Human (hBCMA (human BCMA)): 1.16e+07 M⁻¹ s⁻¹
kd Human (hBCMA (human BCMA)): 0.0692 s⁻¹
B6: P5C1_VHVL: anti-BCMA antibody (antibody, V domains shown)
VH: B1 VH with A33P, N35S, S52G, D53G, C58T, W59Y, T103D, P104S
VL: B1 VL with E30S, M31S, S32T, M49I, I54S, T57P, A93S, H94T, W95S
ka Cyno (Cyno BCMA): 3.53e+06 M⁻¹ s⁻¹

kd Cyno (Cyno BCMA): 0.00129 s⁻¹
ka Human (hBCMA (human BCMA)): 3.1e+06 M⁻¹ s⁻¹
kd Human (hBCMA (human BCMA)): 0.000308 s⁻¹
B8: A02_Rd4_6 nM_C05: anti-BCMA antibody (antibody, V domains shown)
VH: B1 VH with S52F, D53A, C58T, W59Y
VL: B1 VL with E30S, M31S, A93Q, H94R
ka Cyno (Cyno BCMA): 1.36e+06 M⁻¹ s⁻¹

kd Cyno (Cyno BCMA): 0.000891 s⁻¹
ka Human (hBCMA (human BCMA)): 7.47e+06 M⁻¹ s⁻¹
kd Human (hBCMA (human BCMA)): 0.00348 s⁻¹
B9: C01_Rd4_6 nM_C24: anti-BCMA antibody (antibody, V domains shown)
VH: B1 VH with A33P, N35S, S52G, D53G, C58L, W59P, T103D, P104S
VL: B1 VL with E30S, M31P, S32E, M49I, I54S, T57P, A93S, H94V
ka Cyno (Cyno BCMA): 3.17e+06 M⁻¹ s⁻¹

kd Cyno (Cyno BCMA): 0.000137 s⁻¹
ka Human (hBCMA (human BCMA)): 1.07e+07 M⁻¹ s⁻¹
kd Human (hBCMA (human BCMA)): 0.000158 s⁻¹
B10: COMBO_Rd4_0.6 nM_C04: anti-BCMA antibody (antibody, V domains shown)
VH: B1 VH with A33P, N35S, I51H, S52I, D53G, C58T, W59Y, T103D, P104S
VL: B1 VL with E30S, M31S, S32T, A93Q, H94S
ka Cyno (Cyno BCMA): 3.52e+06 M⁻¹ s⁻¹

kd Cyno (Cyno BCMA): 0.00016 s⁻¹
ka Human (hBCMA (human BCMA)): 5.47e+06 M⁻¹ s⁻¹
kd Human (hBCMA (human BCMA)): 9.72e-05 s⁻¹
B11: COMBO_Rd4_6 nM_C10: anti-BCMA antibody (antibody, V domains shown)
VH: B1 VH with A33P, N35S, S52G, D53G, C58I, W59H, T103D, P104S
VL: B1 VL with E30S, M31S, L34W, A35G, A93Q, H94C
ka Cyno (Cyno BCMA): 1.52e+06 M⁻¹ s⁻¹

The next lines start with the molecule.

B2: C01_Rd4_0.6 nM_C09: anti-BCMA antibody (antibody, V domains shown)
VH: B1 VH with A33P, N35S, S52G, D53G, C58L, W59P, T103D, P104S
VL: B1 VL with E30S, M31S, S32L, Y33F, M49I, I54S, T57P, A93S, H94A
ka Cyno (Cyno BCMA): 5.28e+06 M⁻¹ s⁻¹
kd Cyno (Cyno BCMA): 0.00936 s⁻¹
ka Human (hBCMA (human BCMA)): 1.51e+07 M⁻¹ s⁻¹
kd Human (hBCMA (human BCMA)): 0.00825 s⁻¹

B3: C01_Rd4_6 nM_C04: anti-BCMA antibody (antibody, V domains shown)
VH: B1 VH with A33P, N35S, S52G, D53G, C58L, W59P, T103D, P104S
VL: EIVLTQSPGTLSLSPGERATLSCCSSQSVSSTYLAWYQQKPGQAPRLLIYDASSRAPGIPDRFSGSGSGTDFTLTISRLEPEDFAVYYCQQYSAFPLTFGQGTKVEIK
ka Cyno (Cyno BCMA): 6.34e+06 M⁻¹ s⁻¹
kd Cyno (Cyno BCMA): 0.0327 s⁻¹
ka Human (hBCMA (human BCMA)): 2.33e+07 M⁻¹ s⁻¹
kd Human (hBCMA (human BCMA)): 0.0497 s⁻¹

B4: C01_Rd4_0.6 nM_C03: anti-BCMA antibody (antibody, V domains shown)
VH: B1 VH with A33P, N35S, S52G, D53G, C58L, W59P, T103D, P104S
VL: B3 VL with C24R, S25A, Q27C, S28D, S93M, A94R, F95S
ka Cyno (Cyno BCMA): 4.72e+06 M⁻¹ s⁻¹
kd Cyno (Cyno BCMA): 0.0119 s⁻¹
ka Human (hBCMA (human BCMA)): 1.55e+07 M⁻¹ s⁻¹
kd Human (hBCMA (human BCMA)): 0.015 s⁻¹

B5: C01_Rd4_0.6 nM_C27: anti-BCMA antibody (antibody, V domains shown)
VH: B1 VH with A33P, N35S, S52G, D53G, C58L, W59P, T103D, P104S
VL: B3 VL with C24R, S25A, A94R, F95W
ka Cyno (Cyno BCMA): 3.34e+06 M⁻¹ s⁻¹
kd Cyno (Cyno BCMA): 0.00285 s⁻¹
ka Human (hBCMA (human BCMA)): 1.23e+07 M⁻¹ s⁻¹
kd Human (hBCMA (human BCMA)): 0.00374 s⁻¹

B7: C01_Rd4_6 nM_C20: anti-BCMA antibody (antibody, V domains shown)
VH: B1 VH with A33P, N35S, S52G, D53G, C58L, W59P, T103D, P104S
VL: B3 VL with C24R, S25A, S31P, T32L
ka Cyno (Cyno BCMA): 3.6e+06 M⁻¹ s⁻¹
kd Cyno (Cyno BCMA): 0.00625 s⁻¹
ka Human (hBCMA (human BCMA)): 6.02e+06 M⁻¹ s⁻¹
kd Human (hBCMA (human BCMA)): 0.00276 s⁻¹

B12: C01_Rd4_6 nM_C10: anti-BCMA antibody (antibody, V domains shown)
VH: B1 VH with A33P, N35S, S52G, D53G, C58L, W59P, T103D, P104S
VL: B3 VL with C24R, S25A, T32V, A94T, F95W
ka Cyno (Cyno BCMA): 4.44e+06 M⁻¹ s⁻¹
kd Cyno (Cyno BCMA): 0.00219 s⁻¹
ka Human (hBCMA (human BCMA)): 1.31e+07 M⁻¹ s⁻¹
kd Human (hBCMA (human BCMA)): 0.00212 s⁻¹
